{"source": "patent US20060168698", "proteins": {"B1": {"name": "T/DSOS2 (SOS2 protein kinase with the Thr168-to-Asp change in the activation loop) (protein)", "chain": "MTKKMRRVGKYEVGRTIGEGTFAKVKFARNTDTGDNVAIKIMAKSTILKNRMVDQIKREISIMKIVRHPNIVRLYEVLASPSKIYIVLEFVTGGELFDRIVHKGRLEESESRKYFQQLVDAVAHCHCKGVYHRDLKPENLLLDTNGNLKVSDFGLSALPQEGVELLRDTCGTPNYVAPEVLSGQGYDGSAADIWSCGVILFVILAGYLPFSETDLPGLYRKINAAEFSCPPWFSAEVKFLIHRILDPNPKTRIQIQGIKKDPWFRLNYVPIRAREEEEVNLDDIRAVFDGIEGSYVAENVERNDEGPLMMNAFEMITLSQGLNLSALFDRRQDFVKRQTRFVSRREPSEIIANIEAVANSMGFKSHTRNFKTRLEGLSSIKAGQLAVVIEIYEVAPSLFMVDVRKAAGETLEYHKFYKKLCSKLENIIWRATEGIPKSEILRTITF"}}, "molecular_target": "T1, SOS1 (Salt Overly Sensitive 1, plasma membrane Na+/H+ antiporter), Q9LKW9", "T1 chain": "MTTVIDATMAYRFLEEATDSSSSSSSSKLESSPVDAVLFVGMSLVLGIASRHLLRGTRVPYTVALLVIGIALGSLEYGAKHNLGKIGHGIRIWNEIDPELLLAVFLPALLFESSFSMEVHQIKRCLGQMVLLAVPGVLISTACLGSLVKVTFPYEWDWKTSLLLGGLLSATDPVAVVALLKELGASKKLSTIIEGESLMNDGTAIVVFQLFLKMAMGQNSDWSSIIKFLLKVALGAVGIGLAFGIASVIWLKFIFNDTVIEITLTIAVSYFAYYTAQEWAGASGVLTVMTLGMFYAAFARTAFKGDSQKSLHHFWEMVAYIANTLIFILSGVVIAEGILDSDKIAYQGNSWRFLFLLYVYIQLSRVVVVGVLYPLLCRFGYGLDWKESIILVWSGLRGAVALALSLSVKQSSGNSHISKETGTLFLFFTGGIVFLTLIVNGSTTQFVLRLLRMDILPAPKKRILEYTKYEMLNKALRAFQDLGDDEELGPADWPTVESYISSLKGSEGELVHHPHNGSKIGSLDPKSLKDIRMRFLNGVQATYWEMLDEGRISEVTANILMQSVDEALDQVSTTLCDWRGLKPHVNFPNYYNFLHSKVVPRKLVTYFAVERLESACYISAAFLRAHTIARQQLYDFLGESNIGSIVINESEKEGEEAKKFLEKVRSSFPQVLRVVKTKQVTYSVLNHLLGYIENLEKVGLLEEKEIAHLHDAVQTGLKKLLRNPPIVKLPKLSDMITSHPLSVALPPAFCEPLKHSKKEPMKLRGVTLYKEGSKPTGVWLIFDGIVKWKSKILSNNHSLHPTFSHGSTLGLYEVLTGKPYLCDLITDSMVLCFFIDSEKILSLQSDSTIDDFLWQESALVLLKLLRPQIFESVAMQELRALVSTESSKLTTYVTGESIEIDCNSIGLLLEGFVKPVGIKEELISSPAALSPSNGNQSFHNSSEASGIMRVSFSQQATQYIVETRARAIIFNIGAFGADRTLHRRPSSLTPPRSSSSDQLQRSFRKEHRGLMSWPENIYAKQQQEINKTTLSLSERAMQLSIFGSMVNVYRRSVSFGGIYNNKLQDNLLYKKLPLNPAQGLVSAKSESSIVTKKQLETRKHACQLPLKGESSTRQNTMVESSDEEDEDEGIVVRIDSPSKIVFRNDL", "data": [{"protein": "B1", "values": [{"measurement": "plasma membrane Na+/H+-exchange activity, maximum stimulation relative to activity without added protein (100 mM NaCl)", "value": "A maximum stimulation of activity of 40% relative to activity without added protein"}]}]}
